Assay results taken from US11319368B2, “Treatment of hepatotoxicity with IL-11 antibody” (Singapore Health Services PTE LTD., priority 2019, dated 2022).

Legend:
[1] = test system: clonogenic cells in intestinal crypts; conditions: 100 μg/kg, SC prior to and after cytotoxic exposure; cited from earlier work
IRI = conditions: 500 μg/kg, IP one hour prior to IRI; cited from earlier work
[2] = test system: LPS-induced hepatic injury (acute endotoxemia); conditions: 150 μg/kg, IP; cited from earlier work
rheumatoid arthritis = conditions: up to 15 μg/kg weekly for 12 weeks (SC); cited from earlier work
[3] = test system: early intestinal radiation injury; conditions: 2 mg/kg/d from 2 days prior until 2 weeks after irradiation; cited from earlier work
intestinal inflammation = conditions: mucosal sheets 10-10,000 ng/ml; rats 33 μg/kg alternate days 1 or 2 weeks; cited from earlier work
heart [4] = conditions: 20 μg/kg, IV at the start of reperfusion; cited from earlier work
[5] = test system: murine primary macrophages; conditions: 10-100 ng/ml; cited from earlier work
[6] = test system: primary human hepatocytes; test: IL11 stimulation of primary human hepatocytes with sgp130 or sIL11Rα; type: cell-based; conditions: IL11 0.625 ng/ml to 20 ng/ml
heart [7] = conditions: 8 μg/kg, IV 24 hours after ligation, then every 24 hours for 4 days; cited from earlier work
mouse hepatocytes = type: cell-based; conditions: 24 h
From the text: Mouse hepatocytes (ABC-TC3928, AcceGen Biotech) were maintained in mouse hepatocyte medium (ABC-TM3928, AcceGen Biotech) supplemented with 1% Penicillin-streptomycin.

ulcerative mucositis = conditions: 50-100 μg/animal/day, SC; cited from earlier work
[8] = test system: primary human hepatocytes; test: IL11 effect on GSH and NOX4 in primary human hepatocytes; type: cell-based
[9] = test system: primary human hepatocytes; test: IL-11 treatment of primary human hepatocytes: ALT in supernatant, actin stress fibres; type: cell-based; conditions: IL-11 0.019-10 ng/ml, 24 h
Procedure: IL-11 mediated hepatocyte cell death was measured by determining the levels of alanine transaminase (ALT) in hepatocyte supernatant after treatment with a range of IL-11 doses (0.019-10 ng/ml). ALT levels were measured using ALT Activity Assay Kit (ab105134, Abcam) according to the manufacturer's protocol. Concurrent number of stress fibres 24 h after IL-11 stimulation was detected by rhodamine-phalloidin staining.

[10] = test system: Borrelia burgdorferi-infected mice; conditions: 0.1-2 μg/mouse/day, 5 days/week for 3 weeks; cited from earlier work
[11] = test system: chronic Hepatitis C and late stage liver disease; conditions: 5 μg/kg, daily for 12 weeks, SC; 20 patients; cited from earlier work

B1: rhIL11: Recombinant human IL11 (UniProtKB:P20809, Genscript) (protein)
chain: PGPPPGPPRVSPDPRAELDSTVLLTRSLLADTRQLAAQLRDKFPADGDHNLDSLPTLAMSAGALGALQLPGVLTRLRADLLSYLRHVQWLRRAGGSSLKTLEPELGTLQARLDRLLRRLQLLMSRLALPQPPPDPPAPPLAPPSSAWGGIRAAHAILGGLHLTLDWAVRGLLLLKTRL
In the case of B1, the “clonogenic cells in intestinal crypts” value [1] is given as “cytotoxic exposure, protects clonogenic cells in intestinal crypts”, the “hepatoprotection in IRI” value (IRI) is given as “Hepatoprotective effects of rhIL11 in mice subjected to a single” and the LPS-induced hepatic injury [2] is given as “significant protective role in LPS-induced hepatic injury (acute”. For the same molecule, the “patients with mild adverse effect (erythema with/without induration) at the injection site” value (rheumatoid arthritis) was “with/without induration) at the injection site was seen in 60.6% of”, the therapeutic benefit (rheumatoid arthritis) was “no therapeutic benefit” and the “early intestinal radiation injury” value [3] was “The authors conclude that IL11 ameliorates early intestinal”. For the same molecule, the “epithelial transport and inflammation” value (intestinal inflammation) was “acts as a modulator of epithelial transport or as an anti-”, the “adverse cardiac remodeling and apoptosis” value (heart [4]) was “prevents adverse cardiac remodeling and apoptosis after” and the “secretion of pro-inflammatory cytokines by macrophages” value [5] was “The authors conclude that IL11 inhibits the secretion of pro-”. For the same molecule, the “hepatocyte cell death (ALT)” value [6] was “dose-dependently (0.625 ng/ml to 20 ng/ml) caused hepatocyte cell death”, the post-MI scar volume (heart [7]) was “then consecutively every 24 hours for 4 days reduces post-MI” and the “GSH levels in rmIL11 stimulated mouse cells” value (mouse hepatocytes) was “clear, dose-dependent effects of rhIL11 in restoring GSH levels”. For the same molecule, the 5-fluorouracil-induced ulcerative mucositis (ulcerative mucositis) was “Administration of rhIL11 (50-100 μg/animal/day, SC) protects”, the GSH depletion ([8]; dose range and time course) was “stimulated dose-dependent GSH depletion” and the NOX4 expression ([8]; rhIL11 10 ng ml^-1) was “NOX4 upregulation”. For the same molecule, the “actin stress fibres in hepatocytes” value [9] was “progressively stimulated an increase in actin stress fibres”, the “alanine aminotransferase (ALT) in hepatocyte supernatant (hepatocyte cell death)” value [9] was “progressive increase in alanine aminotransferase (ALT)” and the arthritis and carditis [10] was “weeks) reduces arthritis, but not carditis, in Borrelia burgdorferi-”. The “serum ALT by study end” value [11] was “Lower serum ALT was observed by study end. The most”.
